Results on 1 molecule are retold here after PMC10767048 (Nature Communications, 2024).

One may read the Kd as the constant that tells how readily two partners part at equilibrium. High values mean a looser complex, low ones a tighter complex. Usually koff stands for a measure of how fast the partners let go of each other. The low end stands for a long-lived complex, the high end for a short-lived complex. Broadly, the kon is the second-order rate constant of association. Read a low kon as slow association.

For the assay, the target named is GPC trimer Enc nanoparticle (Lassa GPC trimer-SpyTag coupled to encapsulin-SpyCatcher) (Lassa virus, Mouse/Sierra …, stabilised). The assay can be described thus: BLI. The note with it: both partners purified.

B1: Fab of human LASV neutralizing antibody 37.7H (Fab, V domains shown)
VH: EVQLVQSGGGLVKAGGSLRLSCAASGFTFSTYSMNWIRQAPGKGLEWVASISSRSGSHINYVDSVKGRFTISRDNARDLLYLQMNSLRVDDSALYYCARDRRSGTSPLPLDVWGQGTTVTVFS
VL: QSALTQPASVSGSPGQSITISCTGTGSDIGGYNFVSWYQQYPGKAPKLIIYEVRIRASGVSNRFSGSKSGNTASLTISGLQAEDEADYYCNSYSIHSPWVFGGGTKLTVL
As for B1, the Kd is < 1 pM, the koff was < 1e-07 s⁻¹ and the kon was found to be 81100 M⁻¹ s⁻¹.
